Data as given in article PMC6332795 (Theranostics, 2019).

T1: hemagglutinin (HA) of influenza B virus B/Lee/1940, on purified virus (influenza B virus (B/Lee/1940))
T1 chain: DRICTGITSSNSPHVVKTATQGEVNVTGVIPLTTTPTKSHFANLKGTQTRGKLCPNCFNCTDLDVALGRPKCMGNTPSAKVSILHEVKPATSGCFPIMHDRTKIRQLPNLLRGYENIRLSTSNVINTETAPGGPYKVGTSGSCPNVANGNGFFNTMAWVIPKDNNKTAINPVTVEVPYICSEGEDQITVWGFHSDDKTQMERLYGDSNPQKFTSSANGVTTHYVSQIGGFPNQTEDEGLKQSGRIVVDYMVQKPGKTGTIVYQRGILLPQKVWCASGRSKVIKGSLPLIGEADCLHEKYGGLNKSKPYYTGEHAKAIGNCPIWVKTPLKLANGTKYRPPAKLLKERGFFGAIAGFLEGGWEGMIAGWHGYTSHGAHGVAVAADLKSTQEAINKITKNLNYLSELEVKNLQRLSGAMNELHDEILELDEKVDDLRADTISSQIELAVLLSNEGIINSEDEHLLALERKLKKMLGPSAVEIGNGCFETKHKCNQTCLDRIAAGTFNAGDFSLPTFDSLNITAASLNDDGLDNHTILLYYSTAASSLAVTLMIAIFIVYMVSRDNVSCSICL


How the values were obtained:
[1] = biological target: T1, hemagglutinin (HA) of influenza B virus …; assay: ELISA
[2] = biological target: B/Florida/4/2006 HA (recombinant HA protein) (Influenza B virus (B/Florida/4/2006), UniProt E1TVD5, strain, biotin (EZ-Link Sulfo-NHS-LC-Biotin kit)); assay: BLI

| Binder | binding result [1] | Kd [2] [nM] |
| --- | --- | --- |
| C10H10-IgM (antibody, V domains shown) VH: EIQLQQSGPELVKPGASLKVSCKGFGYSFTDYKMYWVKQSHGKSLEWIGYIDPYNGGMRYNQKFKVKATLTVDMSSNTTFMHLNSLTFEDFAVYYCARGYGKNYAMEYWGQGTSVTVSS VL: NIVLTQSPASLAVSLGQRATISCRASESVDTYGQSFMHWYQQKPGQPPKLLIHLASNLESGVPARFNGSGSRTDFTLTIDPVEADDAATYYCQQNNEDPYTFGGGTKLEIK | no binding | – |
| C10H10-IgG (antibody, V domains shown) VH: EIQLQQSGPELVKPGASLKVSCKGFGYSFTDYKMYWVKQSHGKSLEWIGYIDPYNGGMRYNQKFKVKATLTVDMSSNTTFMHLNSLTFEDFAVYYCARGYGKNYAMEYWGQGTSVTVSS VL: NIVLTQSPASLAVSLGQRATISCRASESVDTYGQSFMHWYQQKPGQPPKLLIHLASNLESGVPARFNGSGSRTDFTLTIDPVEADDAATYYCQQNNEDPYTFGGGTKLEIK | no binding | – |
| C3G10-IgM (antibody, V domains shown) VH: EVQLQESGAELVKPGASVKLSCTASGFDIKDTYIHWVKQKPEKGLEWIGRIDPADGDTQSDPRFQGKATITSDTSSNTTYLHLSSLTSEDTAVYYCAKGGWYFDVWGAGTTVTVSS VL: HIVLTQSPASLAVSLGQRGTISCRASESVDSYGNSFMHWYQQRPGQPPKLLIYLASKLKCGVPARFSGSGSRTDFTLTNDPLEGGDGATYYCQQNNEVPRTFGGGTKLEIK | binds | – |
| C3G10-IgG (antibody, V domains shown) VH: EVQLQESGAELVKPGASVKLSCTASGFDIKDTYIHWVKQKPEKGLEWIGRIDPADGDTQSDPRFQGKATITSDTSSNTTYLHLSSLTSEDTAVYYCAKGGWYFDVWGAGTTVTVSS VL: HIVLTQSPASLAVSLGQRGTISCRASESVDSYGNSFMHWYQQRPGQPPKLLIYLASKLKCGVPARFSGSGSRTDFTLTNDPLEGGDGATYYCQQNNEVPRTFGGGTKLEIK | binds | – |
| C7G6-IgM (antibody, V domains shown) VH: EVQLQQSGPELVKPGASVKISCKASGYTFTDYNMHWVKQSLGKSLEWIGYIYPNNGGTGYNQKFESKATLTADNSSSTAYMELRTLTSEDSAVYYCVRSGAYYFNYLVPYFDYWGQGTTLTVSS VL: NIVLTQSPASLAVSLGQRGTISCRASESVDIYGNSFMHWYQQKPGQPPKLLIYLASKLECGVCARFNGSGCRTDFTLAIDPVEGDDGATYYCQQNYEDPWTFGGGTKLEIK | binds | 0.58 |
| C11B10 (antibody, V domains shown) VH: EVQLQQSGPELVKPGASVKISCKASGYTFTGYNMHWVKQSHGKSLEWIGKIYPNNGVTGYNQEFRSKATLTVDNSSSTAYMELRSLTSEDSAIYFCVRSGAYYVNYLVPYFDYWGQGTTLTVSS VL: NIVLTQSPASLAVSPGQRATISCRASESIDIYGNSFMHWYQKKPGQPPKLLIYRASNLESGVPARFNGSGSRTDFTLTIDPVEGDDGATYYCQQNYEDPWTFGGGTKLEIK | no binding | – |
| C7G6-IgG (antibody, V domains shown) VH: EVQLQQSGPELVKPGASVKISCKASGYTFTDYNMHWVKQSLGKSLEWIGYIYPNNGGTGYNQKFESKATLTADNSSSTAYMELRTLTSEDSAVYYCVRSGAYYFNYLVPYFDYWGQGTTLTVSS VL: NIVLTQSPASLAVSLGQRGTISCRASESVDIYGNSFMHWYQQKPGQPPKLLIYLASKLECGVCARFNGSGCRTDFTLAIDPVEGDDGATYYCQQNYEDPWTFGGGTKLEIK | binds | 24.7 |
